Results reported in patent publication US20240052042A1 (Novartis, published 2024).

Legend:
[1] = target: T1, human NPR1 on CHO-K1 cells (human, UniProt P16066 33-1061); test: cell-based or functional assay
T1 sequence: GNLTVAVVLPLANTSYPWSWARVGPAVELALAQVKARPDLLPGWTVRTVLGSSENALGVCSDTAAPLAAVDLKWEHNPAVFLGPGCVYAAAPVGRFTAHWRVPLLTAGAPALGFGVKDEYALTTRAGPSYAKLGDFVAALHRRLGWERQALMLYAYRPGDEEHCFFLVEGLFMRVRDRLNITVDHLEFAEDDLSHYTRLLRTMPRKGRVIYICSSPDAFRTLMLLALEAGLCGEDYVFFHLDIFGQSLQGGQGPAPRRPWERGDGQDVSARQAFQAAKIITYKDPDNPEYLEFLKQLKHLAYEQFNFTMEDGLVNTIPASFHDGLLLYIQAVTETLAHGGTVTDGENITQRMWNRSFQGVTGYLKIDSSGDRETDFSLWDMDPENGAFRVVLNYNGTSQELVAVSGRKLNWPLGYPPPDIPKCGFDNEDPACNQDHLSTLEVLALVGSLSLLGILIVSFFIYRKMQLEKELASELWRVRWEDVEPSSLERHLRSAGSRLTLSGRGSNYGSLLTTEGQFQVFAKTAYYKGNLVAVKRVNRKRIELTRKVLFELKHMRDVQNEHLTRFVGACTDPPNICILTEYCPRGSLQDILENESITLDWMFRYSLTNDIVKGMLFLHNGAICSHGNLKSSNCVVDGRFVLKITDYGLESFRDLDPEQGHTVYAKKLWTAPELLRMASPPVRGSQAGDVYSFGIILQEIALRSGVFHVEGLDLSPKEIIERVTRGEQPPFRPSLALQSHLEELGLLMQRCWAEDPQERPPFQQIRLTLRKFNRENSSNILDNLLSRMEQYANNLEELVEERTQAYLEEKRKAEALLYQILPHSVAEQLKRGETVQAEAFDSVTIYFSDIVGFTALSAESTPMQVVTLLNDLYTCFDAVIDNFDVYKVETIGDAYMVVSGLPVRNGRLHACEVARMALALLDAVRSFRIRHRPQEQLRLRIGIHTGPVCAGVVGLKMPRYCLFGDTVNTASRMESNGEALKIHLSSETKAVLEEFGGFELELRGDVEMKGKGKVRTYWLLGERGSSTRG

[2] = target: T2, human Natriuretic Peptide Receptor 1 (hNPR1) (human, UniProt P16066 33-473, limits assumed); test: FabCys affinity (Octet per Table 18 comment)
T2 construct: pannings used NPR1-hFc; also called NPR1-hFc
T2 sequence: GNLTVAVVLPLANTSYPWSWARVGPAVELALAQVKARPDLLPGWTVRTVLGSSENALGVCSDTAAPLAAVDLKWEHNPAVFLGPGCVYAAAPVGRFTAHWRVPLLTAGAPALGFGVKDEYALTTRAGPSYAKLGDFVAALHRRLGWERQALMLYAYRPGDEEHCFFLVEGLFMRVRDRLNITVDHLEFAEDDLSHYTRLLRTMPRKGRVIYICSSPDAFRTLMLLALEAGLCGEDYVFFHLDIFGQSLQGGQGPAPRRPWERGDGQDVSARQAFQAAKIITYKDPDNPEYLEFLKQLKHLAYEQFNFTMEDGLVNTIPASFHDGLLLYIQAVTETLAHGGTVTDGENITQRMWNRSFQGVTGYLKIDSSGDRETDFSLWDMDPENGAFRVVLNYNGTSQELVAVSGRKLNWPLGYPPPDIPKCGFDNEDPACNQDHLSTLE

[3] = target: T3, hNPR1-ANP complex (human, UniProt P01160 124-151, limits assumed); test: FabCys affinity (Octet per Table 18 comment)
T3 construct: hNPR1 antigen in the presence of ANP; also called hNPR1 + 100 nM ANP
T3 sequence: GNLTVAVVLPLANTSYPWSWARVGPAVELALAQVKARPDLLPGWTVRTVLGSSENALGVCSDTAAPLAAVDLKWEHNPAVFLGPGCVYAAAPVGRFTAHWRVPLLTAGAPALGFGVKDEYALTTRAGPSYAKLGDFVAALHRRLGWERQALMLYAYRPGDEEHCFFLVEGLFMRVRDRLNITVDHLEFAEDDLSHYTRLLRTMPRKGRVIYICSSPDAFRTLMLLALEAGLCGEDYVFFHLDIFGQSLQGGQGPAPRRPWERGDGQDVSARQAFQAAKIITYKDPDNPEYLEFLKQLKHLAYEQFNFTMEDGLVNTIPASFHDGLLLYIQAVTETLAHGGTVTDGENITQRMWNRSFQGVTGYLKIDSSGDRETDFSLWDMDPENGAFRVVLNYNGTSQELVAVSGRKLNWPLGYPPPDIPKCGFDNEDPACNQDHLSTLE
T3 sequence (peptide): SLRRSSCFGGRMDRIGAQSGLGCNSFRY

[4] = target: T4, rNPR1-ANP complex (rat, UniProt P01160 124-151 (human entry), limits assumed); test: FabCys affinity (Octet per Table 18 comment)
T4 construct: rNPR1 antigen in the presence of ANP; also called rNPR1 + 100 nM ANP
T4 sequence: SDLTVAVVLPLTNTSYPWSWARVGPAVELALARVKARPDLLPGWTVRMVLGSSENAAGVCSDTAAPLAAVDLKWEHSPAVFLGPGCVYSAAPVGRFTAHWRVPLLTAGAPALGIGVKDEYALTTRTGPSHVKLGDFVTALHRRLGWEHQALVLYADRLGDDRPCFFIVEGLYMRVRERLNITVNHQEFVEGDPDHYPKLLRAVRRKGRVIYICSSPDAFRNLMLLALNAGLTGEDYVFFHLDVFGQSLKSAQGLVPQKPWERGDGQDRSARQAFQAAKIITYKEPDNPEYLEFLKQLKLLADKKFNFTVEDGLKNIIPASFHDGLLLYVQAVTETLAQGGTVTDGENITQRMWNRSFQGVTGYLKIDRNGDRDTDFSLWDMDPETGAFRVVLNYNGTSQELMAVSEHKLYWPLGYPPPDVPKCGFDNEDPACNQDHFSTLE
T4 sequence (peptide): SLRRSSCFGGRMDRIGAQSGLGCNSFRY

[5] = target: T5, rat NPR1 (rNPR1) (rat, UniProt P18910 29-469, limits assumed); test: FabCys affinity (Octet per Table 18 comment)
T5 construct: Soluble antigen
T5 sequence: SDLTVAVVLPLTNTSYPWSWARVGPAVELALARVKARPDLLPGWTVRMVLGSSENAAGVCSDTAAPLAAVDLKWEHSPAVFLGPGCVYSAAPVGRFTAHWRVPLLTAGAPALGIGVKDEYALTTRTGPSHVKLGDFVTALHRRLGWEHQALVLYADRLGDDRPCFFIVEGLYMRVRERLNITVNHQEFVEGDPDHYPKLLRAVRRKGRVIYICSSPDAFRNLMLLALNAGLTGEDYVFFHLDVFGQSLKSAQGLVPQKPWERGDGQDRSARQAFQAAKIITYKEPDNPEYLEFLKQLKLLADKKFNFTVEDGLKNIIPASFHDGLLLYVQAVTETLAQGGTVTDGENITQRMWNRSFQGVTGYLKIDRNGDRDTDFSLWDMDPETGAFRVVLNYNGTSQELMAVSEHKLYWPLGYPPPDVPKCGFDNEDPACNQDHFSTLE

[6] = target: T2, human Natriuretic Peptide Receptor 1 …; test: FabCys, parental value by Octet, assay limit reached (table comment), as in Table 14
[7] = target: T3, hNPR1-ANP complex; test: as above
[8] = target: T4, rNPR1-ANP complex; test: as above
[9] = target: T5, rat NPR1 (rNPR1); test: as above

- cGMP conc [nM] at 1 µM FabCys, +0.075 nM ANP [1]: 227 nM
- cGMP conc [nM] at 1 µM FabCys, without ANP [1]: 207 nM
- Kd [2]: 0.9 nM
- Kd [3]: 350 nM
- Kd [4]: 16000 nM
- Kd [5]: 700 nM
- Kd [6]: 0.9 nM
- Kd [7]: 350 nM
- Kd [8]: 16000 nM
- Kd [9]: 700 nM
B1: YY05 (FabCys format) (Fab, V domains shown)
VH: EVQLVQSGAEVKKPGESLKISCKGSGYSFTSYWISWVRQMPGKGLEWMGIIYPGTSYTRYSPSFQGQVTISADKSISTAYLQWSSLKASDTAMYYCARGAVAGQLGFDHWGQGTLVTVSS
VL: QSVLTQPPSVSGAPGQRVTISCTGSSSNIGAGYDVHWYQQLPGTAPKLLIYGNSNRPSGVPDRFSGSKSGTSASLAITGLQAEDEADYYCQSYYTSSHGPVFGGGTKLTVL
notes: Monovalent FabCys
